The values that follow come from patent US20240317826A1 (ALBERT EINSTEIN COLLEGE OF MEDICINE, published 2024).

In the assay the target is T1, GST-CTD (C-terminal domain of HIV-1 integrase, aa 201-288, GST fusion) (HIV-1 (Hx3B), UniProt P04585 1348-1435).
T1 construct: domain: C-terminal (IN-CTD, aa 201-288 of integrase); also called IN-CTD; pGST-IN-CTD(aa 201-288); not shown: GST tag from pGEX3xPL vector
Kind of assay: Alpha proximity competition, low salt: increasing INI1183-304 added to GST-CTD + biotinylated TAR RNA; displaced competitor is TAR RNA.

B1: His6-SUMO-INI1183-304 (other)
chain: PEVLVPIRLDMEIDGQKLRDAFTWNMNEKLMTPEMFSEILCDDLDLNPLTFVPAIASAIRQQIESYPTDSILEDQSDQRVIIKLNIHVGNISLVDQFEWDMSEKENSPEKFALKLCSELGLG
notes: range 183-304; also called 6His-SUMO-INI1183-304; Rpt1 (cartoon label); not shown: His6-SUMO (h6-smt3) tag from pET28a-h6-smt3
Consider B1, for which the half-maximal inhibitory concentration (IC50) was approximately 5 nM.
